Measured values published in publication PMC10491584, “Structural convergence endows nuclear transport receptor Kap114p with a transcriptional repressor function toward TATA-binding protein” (Nature Communications, 2023).
Where “and” joins values, the source holds several entries; their conditions need not be identical. Equal values may be shown once.

How the values were obtained:
Kap114pΔY939 = target: T1, Kap114pΔY939 (S. cerevisiae, UniProt P53067 1-1004, ΔY939); experiment: ITC; Kap114p (wild type or mutant) 50 uM in the sample cell, partner 500 uM in the syringe; 25 °C; 20 mM HEPES pH 7.4, 150 mM NaCl; triplicate; details: both partners purified
T1 construct: Kap114p, S. cerevisiae, full length with residue Y939 deleted; also called Kap114p(DY939); source: E. coli (Rosetta strain), purified (GST resin, MonoQ, Superdex 200)
T1 sequence (looked up): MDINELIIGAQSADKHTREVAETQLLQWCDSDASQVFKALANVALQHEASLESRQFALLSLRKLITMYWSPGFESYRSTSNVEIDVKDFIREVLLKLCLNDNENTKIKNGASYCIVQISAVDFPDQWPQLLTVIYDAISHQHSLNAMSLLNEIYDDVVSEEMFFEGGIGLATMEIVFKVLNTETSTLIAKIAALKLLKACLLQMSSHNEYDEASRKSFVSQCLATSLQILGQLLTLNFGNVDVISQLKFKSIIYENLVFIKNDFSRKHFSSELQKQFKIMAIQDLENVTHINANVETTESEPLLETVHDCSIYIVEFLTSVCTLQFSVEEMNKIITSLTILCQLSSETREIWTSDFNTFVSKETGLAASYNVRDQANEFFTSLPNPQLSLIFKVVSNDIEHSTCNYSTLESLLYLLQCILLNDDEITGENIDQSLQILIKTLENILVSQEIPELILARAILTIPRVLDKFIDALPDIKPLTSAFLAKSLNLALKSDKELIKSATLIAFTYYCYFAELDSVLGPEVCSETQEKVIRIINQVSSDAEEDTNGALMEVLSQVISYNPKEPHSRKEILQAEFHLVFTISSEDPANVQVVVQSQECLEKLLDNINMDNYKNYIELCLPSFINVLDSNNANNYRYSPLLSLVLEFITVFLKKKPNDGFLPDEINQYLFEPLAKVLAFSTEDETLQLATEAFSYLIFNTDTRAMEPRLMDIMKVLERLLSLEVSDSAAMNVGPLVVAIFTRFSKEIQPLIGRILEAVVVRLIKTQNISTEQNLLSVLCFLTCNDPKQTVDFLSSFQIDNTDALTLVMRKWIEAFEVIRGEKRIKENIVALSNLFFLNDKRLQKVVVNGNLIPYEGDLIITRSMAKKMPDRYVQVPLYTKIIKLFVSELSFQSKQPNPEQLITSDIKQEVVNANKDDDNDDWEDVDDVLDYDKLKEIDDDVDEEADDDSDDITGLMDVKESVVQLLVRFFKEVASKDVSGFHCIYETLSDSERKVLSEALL

Kap114p = target: T2, Kap114p (S. cerevisiae, UniProt P53067 1-1004); experiment: as above; details: both partners purified
T2 construct: Kap114p, S. cerevisiae, full length, amplified from total genomic DNA; also called wild type Kap114p; source: E. coli (Rosetta strain), purified (GST resin, MonoQ, Superdex 200)
T2 sequence (looked up): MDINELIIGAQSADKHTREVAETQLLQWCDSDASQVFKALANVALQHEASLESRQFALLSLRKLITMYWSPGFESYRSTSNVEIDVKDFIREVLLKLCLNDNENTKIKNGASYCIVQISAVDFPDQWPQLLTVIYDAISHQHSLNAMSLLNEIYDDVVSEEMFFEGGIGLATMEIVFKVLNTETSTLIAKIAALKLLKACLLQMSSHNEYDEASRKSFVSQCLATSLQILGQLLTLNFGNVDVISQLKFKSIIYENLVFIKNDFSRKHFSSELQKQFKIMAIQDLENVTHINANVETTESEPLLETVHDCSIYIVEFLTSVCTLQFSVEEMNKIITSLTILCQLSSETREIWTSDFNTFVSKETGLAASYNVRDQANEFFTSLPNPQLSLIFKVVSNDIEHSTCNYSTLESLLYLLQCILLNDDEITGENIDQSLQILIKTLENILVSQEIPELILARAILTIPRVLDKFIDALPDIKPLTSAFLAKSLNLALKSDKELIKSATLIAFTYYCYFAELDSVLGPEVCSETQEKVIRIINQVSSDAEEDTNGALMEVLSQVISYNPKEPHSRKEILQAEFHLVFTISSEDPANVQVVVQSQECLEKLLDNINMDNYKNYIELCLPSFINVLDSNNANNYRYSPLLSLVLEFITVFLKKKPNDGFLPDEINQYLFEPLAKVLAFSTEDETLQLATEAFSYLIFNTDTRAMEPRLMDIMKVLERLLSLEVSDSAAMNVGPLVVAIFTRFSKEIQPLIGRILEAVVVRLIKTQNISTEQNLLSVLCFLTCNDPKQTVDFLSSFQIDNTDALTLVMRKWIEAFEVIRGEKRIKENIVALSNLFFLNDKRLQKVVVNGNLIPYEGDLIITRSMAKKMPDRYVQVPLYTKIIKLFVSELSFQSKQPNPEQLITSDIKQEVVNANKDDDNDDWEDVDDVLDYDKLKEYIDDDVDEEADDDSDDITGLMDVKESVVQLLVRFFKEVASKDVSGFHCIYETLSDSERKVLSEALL

- Kd (Kap114pΔY939): 37.1 nM
- Ka (Kap114p): 9.85e+08 M⁻¹ and 6.92e+08 M⁻¹ and 9.37e+08 M⁻¹
B1: core domain of yTBP (a.a. 61-240) (domain or fragment, S. cerevisiae, UniProt P13393 61-240, looked up)
chain: SGIVPTLQNIVATVTLGCRLDLKTVALHARNAEYNPKRFAAVIMRIREPKTTALIFASGKMVVTGAKSEDDSKLASRKYARIIQKIGFAAKFTDFKIQNIVGSCDVKFPIRLEGLAFSHGTFSSYEPELFPGLIYRMVKPKIVLLIFVSGKIVLTGAKQREEIYQAFEAIYPVLSEFRKM
notes: 61-240; also called yTBP^C; yTBPc; source: E. coli (Rosetta strain), purified (Ni-NTA, HiTrap SP, Superdex 75); not shown: 6xHis, N-terminal, cleaved
